Reference: the supplement of paper PMC10567573

B1: KLHDC10 (parent)
chain: FGGTGIPFGESNGNGVHVCNVKYK

Variants of: B1
Assay: protein stability index of a GFP-peptide fusion (GPS, HEK-293T) (PSI 1-6); higher = more stable
Settings: c terminus: a fixed tail appended
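Note: lentivirally expressed fusions sorted by FACS into six bins by GFP to DsRed ratio, PSI derived from sequencing read proportions per bin multiplied by bin number.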

Variant	protein stability index
G5F	1.92
G5H	1.92
G5I	3.13
G5K	1.52
G5L	1.89
G5M	2.47
G5N	2.87
G5P	1.86
G5Q	2.42
G5R	2
G5S	2.39
G5T	2.18
G5V	1.9
G5W	2.69
G5Y	1.34
I6A	2.1
I6C	1.87
I6D	3.29
I6E	3.02
I6F	2.3
I6G	1.96
I6H	2.08
I6K	2.2
I6L	2.39

Variant	protein stability index
I6M	2.07
I6N	2.07
I6P	1.94
I6Q	2.27
I6R	1.72
I6S	1.88
I6T	1.84
I6V	2.16
I6W	2.27
P7A	1.41
P7C	1.5
P7D	2.92
P7E	2.44
P7F	3.68
P7G	2.23
P7H	2.13
P7I	1.73
P7K	2.01
P7L	3.6
P7M	1.29
P7N	2.4
P7Q	2.06
P7R	2.07
P7S	2.14

Variant	protein stability index
P7T	2.33
P7V	2.92
P7Y	2.5
F8A	3.78
F8C	3.02
F8D	4.16
F8E	4.3
F8G	3.58
F8H	2.65
F8I	2.5
F8K	3.84
F8L	3.04
F8M	3.02
F8N	3.61
F8P	4.12
F8Q	3.75
F8R	3.37
F8S	3.62
F8T	3.22
F8V	2.83
F8W	1.98
F8Y	2.16
G9A	1.85
G9C	1.41

Variant	protein stability index
G9D	3.04
G9E	3.16
G9H	2.72
G9I	2.16
G9K	1.79
G9L	1.39
G9M	1.18
G9N	2.29
G9P	2.44
G9Q	1.88
G9R	1.76
G9S	1.74
G9T	1.66
G9V	2.57
G9W	2.89
G9Y	2.15
E10A	2.94
E10C	1.51
E10D	1.73
E10F	1.7
E10G	1.68
E10H	1.99
E10I	2.39
E10K	1.46

Variant	protein stability index
E10L	2.43
E10M	2.26
E10N	3.06
E10P	1.95
E10Q	2.94
E10R	2.46
E10S	3.04
E10T	1.62
E10V	2.49
E10W	2.59
E10Y	1.45
S11A	1.97
S11C	1.82
S11D	2.52
S11E	2.82
S11F	1.72
S11G	1.54
S11H	2.2
S11I	2.73
S11K	1.87
S11L	1.62
S11M	2.25
S11N	1.91
S11P	2.3

Variant	protein stability index
S11Q	2.06
S11R	1.97
S11T	1.96
S11V	2.35
S11W	2.4
S11Y	1.65
N12A	1.85
N12C	1.63
N12D	2.33
N12E	2.11
N12F	1.41
N12G	1.62
N12H	2.22
N12I	1.58
N12K	1.82
N12L	1.87
N12M	1.9
N12P	1.73
N12Q	2.06
N12R	1.51
N12S	1.74
N12T	1.97
N12V	1.6
N12W	1.74

Variant	protein stability index
N12Y	2.59
G13A	2.02
G13C	1.59
G13D	2.18
G13E	2.28
G13F	1.9
G13H	1.77
G13I	1.38
G13K	2.06
G13L	2.05
G13M	2.73
G13N	1.7
G13P	1.91
G13Q	2.38
G13R	2.36
G13S	1.92
G13T	2.58
G13V	2.17
G13W	2.03
G13Y	2.09
N14A	1.82
N14C	1.87
N14D	1.87
